In the DeepSol protein solubility set:

Assay: soluble on expression in E. coli; label from the status in PepcDB or PDB records

Sequence | soluble on expression in E. coli
MEGQSGRCKIVVVGDAECGKTALLQVFAKDAYPGSYVPTVFENYTASFEIDKRRIELNMWDTSGSSYYDNVRPLAYPDSDAVLICFDISRPETLDSVLKKWQGETQEFCPNAKVVLVGCKLDMRTDLATLRELSKQRLIPVTHEQGTVLAKQVGAVSYVECSSRSSERSVRDVFHVATVASLGRGHRQLRRTDSRRGMQRSAQLSGRPDRGNEGEIHKDRAKSCNLM | soluble
MEHICGTSRIAGFRFSLYPMTDDFISVIKSALKKTDTSKVWTKTDHISTVLRGSIDHVFDAAKAIYLHAANSEQHIVMNGTFSIGCPGDTQGDTYLSKGDKRVNEDAVRGLKAEAPCQFALYPMNEPDYMGLIMEAVDIAKAQGTFVQGVHYASELDGDAHDVFSTLEAVFRMAEQQTNHITMTVNLSANSPSRKNRKQG | soluble
MEHPEGEDPTLLPPALAARALGVSPATLRRYAALWERLVGPLPRDPRGGRLWPKEALARLRAAREAHLREGLPLEEALARVQGDFPALALPSEGEALALLRALAERLERVEGELRALREENARLREALKALEPPRRRPWWRFWGH | soluble
MEIFPAIDLKEGRCVRLYQGEFSKETVMNEDPVAQAIIFEKFGAKRLHIVDLDGAVAGESLNLSVIERICKAVRIPVQVGGGIRSLVAVEKLFSVGVDKVILGTAALYDKTFLEEAVLLYKEKIIVGIDAKNGFVATRGWLDVSEISYIDLAKQMEKIGVQTIVFTDISKDGTLAGPNIEQLELLQKSVAIRLIASGGVASIQDVKKLNDMNIYGVIIGKALYEKTIDLEEVVEVTKLC | not soluble
MEIGTVTSQEEKLAYEKSIEMAGNYANQFDAQMEANQAIARTLACTMAEYGSQDREEAMSIIKRILNENPQLIGVYLGYEPDAFDGRDKNYINAPGHDSTGRFVPYCNKINGPVIIEPLVHYDSSDYYQLPKTTGKDTLTEPYFYEGIFMVSYDSPIFKNGEFAGIAGVDVPLEYVDDVASSIRTFDTGYAFMVSNTGIFLSHPTQKNWIGEKSLSDFDVEEIKNAASDIREGIGGHVEIKDPITGKTVIMFYEPVKTGDFSFVLVVPKEEMLAGVKDLRDRLLEHHHHHH | soluble
MEIKEFSACNLESLRKLYLDSRRDSFPWLKADSFRIEDFDRDSQGERIWLSEVLGNVVGFISIWEPDNFIHHLYVATEYQGQGVGSMLLNGAKMKYGNLSLKCMVQNQKALNFYSSQGFEIVSQVDDELGGYYYMSFSAQT | not soluble
MEIKGESMQKSKFRRICVFCGSSQGKKSSYQDAAVDLGNELVSRNIDLVYGGGSIGLMGLVSQAVHDGGRHVIGIIPKTLMPRELTGETVGEVRAVADMHQRKAEMAKHSDAFIALPGGYGTLEELLEVITWAQLGIHDKPVGLLNVDGYYNSLLSFIDKAVEEGFISPTAREIIVSAPTAKELVKKLEEYAPCHERVATKLCWEMERIGYSSEE | soluble
MEITPKRYWRRWRGYEKLDGSSETTSGRRKGKRVKMDPTRKKRFWRIKIVPKLRILKTASPKKFLVWLRDSYVKMMMRLANSRVVGSSGYGGSGFGSGQMKEYDEKMLVEIYKSILMVQAQGNLVHRDTPNNNLKLPSEPAVVSVVSSVVTC | not soluble
MEKETLFIAFSTQKGGAGKTTLTVLVASYLHYVKGMNVAVVDCDYPQHSIAEMRKRDLKTVMEDEHYKLMAYRQLQRIRKKAYPVAESTAEDAVTKADELLEKMPETDIVFFDLPGTVNSTGVLNTLVNMDYVFSPIAADRVVMESTLRFASRLNDTLIATGKTNIKGLYLLWNMVDGREKSELYKVYEQVIGELGLKVLKTFLPDSKRFRRELTGGHRALFRSTLFPADGTLVKGSNLKEITEELLSIIRK | not soluble
MEKIIVRGGKRLNGTVRVEGAKNAVLPIIAAALLASDGKNVLSEVPVLSDVYTINEVLRHLNAEVVFENNQVTIDASKELNIEAPFEYVRKMRASVQVMGPLLARNGRARIALPGGCAIGSRPIDQHLKGFEAMGAKVQVGNGFVEAYVEGELKGAKIYLDFPSVGATENIMSAATLAKGTTILENAAKEPEIVDLANFLNAMGAKVRGAGTGTIRIEGVDKLYGANHSIIPDRIEAGTFMVAAAITGGDILIENAVPEHLRSITAKMEEMGVKIIEENEGVRVIGPDKLKAVDIKTMPHPGFPTDMQSQMMALLLQADGTSMITETVFENRFMHVEEFRRMNADIKIEGRSVIMNGPNSLQGAEVGATDLRAAAALILAGLVSEGYTRVTELKHLDRGYVDFHKKLAALGATIERVNEKVEEVKEQEVSDLHA | not soluble
MEKIKNTCKIWEYIYTISRDRLYQKIPKEEFLRLSTSDKEYLEAIKNLNNPKISELARDMGYTKTAVTTMVQKLEKNGYLKKIKSKEDKREINVELTDKGRYIFELKEEVYEYTIKRIKEVLTPQELGAFKAILEKIAKEFDQELGKIYEKNENIDKSDGPPII | not soluble
MEKILIFGHQNPDTDTICSAIAYADLKNKLGFNAEPVRLGQVNGETQYALDYFKQESPRLVETAANEVNGVILVDHNERQQSIKDIEEVQVLEVIDHHRIANFETAEPLYYRAEPVGCTATILNKMYKENNVKIEKEIAGLMLSAIISDSLLFKSPTCTDQDVAAAKELAEIAGVDAEEYGLNMLKAGADLSKKTVEELISLDAKEFTLGSKKVEIAQVNTVDIEDVKKRQAELEAVISKVVAEKNLDLFLLVITDILENDSLALAIGNEAAKVEKAFNVTLENNTALLKGVVSRKKQVVPVLTDAMAE | soluble
MEKKIGKLSIRVLLNTHRRNDCEIYPLIIRVVYHRRKSEYSLGWKIHTSNFSADRERVVYSSTGNLKRKDLGLINDAISQERERLLKIFAFLQQNMPGFSLSQLMDKYRMERNLRYVDAFIVREIERLRQEGRSGTAGLYLSGLYSLRRFLRGQKITFRELTYCFLTDYIHFLRMRGISENTVNMYIRNLRAVYNKAQKQGINMGCESPFRELKLQTQETAKRALCKHDIARIVSVDLSSEPLLDRARDLFMFSFYARGMPFVDIVFLKHDSIINGIIYYERNKTGQRMQVRVIPPLAALIEKYRSSYPYVLPYITSFSDRTSYMQYRYALGNVNRLLKRLGRRLHLPLVLTTYVARHSWATIAKEEGFSIASISEGLGHTSEATTQIYLQSFNSEVIDKINEQVVASIGRHI | not soluble
MEKLIAIQQNTIKQETVQTMSSREIAELCGKRHGHVMRDIRKLFSELKIDLSNFAGLYKDSTGRTLPCYHLPKREALIVILGYNTVLRAKIIDYWKKLEEQAANPQIDFSSPEIRAAIMMHLKNKIKQTA | soluble
MEKLRVGIVFGGKSAEHEVSLQSAKNIVDAIDKSRFDVVLLGIDKQGQWHVSDASNYLLNADDPAHIALRPSATSLAQVPGKHEHQLIDAQNGQPLPTVDVIFPIVHGTLGEDGSLQGMLRVANLPFVGSDVLASAACMDKDVTKRLLRDAGLNIAPFITLTRANRHNISFAEVESKLGLPLFVKPANQGSSVGVSKVTSEEQYAIAVDLAFEFDHKVIVEQGIKGREIECAVLGNDNPQASTCGEIVLTSDFYAYDTKYIDEDGAKVVVPAAIAPEINDKIRAIAVQAYQTLGCAGMARVDVFLTPENEVVINEINTLPGFTNISMYPKLWQASGLGYTDLITRLIELALERHAADNALKTTM | soluble
MEKLYDVIVVGAGTSGMMAAISAAEQGARVLLIEKNKKAGKKLLMTGGGRCNVTNNRPVDDLIAHIPGNGKFLYSTFAQWNNFDIMNFFESQGVHLKEEDHGRMFPVTNKSKTIIEALLNRLKELDVTLLFSTRVEKLIHKEHKIYGIRTEFEEFHAPAIILTTGGRTYPSTGSTGDGYKIVKRVGHTVTPLYATESPLISDEPYIQEKTLQGLSLQDITLRVLNKKGRVLTEHTMDLLFTHFGISGPAALRCSSFVNKELEKTGEPVTLSLDCFPTQTKQELIHILTEKSKATKKNLVNAWHGILPERLLVFFLERLEMDHLTGQQASQKQIQDFVQLCKEFKLSINKTFPIEKSFVTGGGVSLKEIYPKTLESKIIDGLYFAGELLDVNGYTGGFNITAAFATGHVAGMNAGQRA | soluble
MEKNMKIELITIKEFIEQAECYFRNYMDGLRRNAPDDFYYFLNNKYNMNDIMESIIKKTRYHFYDDTEEGKRNRIYGEVNHCKVKQHLRQLWIVYKCVYR | soluble
MEKYAVILGKNPELSLVELKAFSRRFRLGVRILEERIYGSNKSFAIIQAKEDIEKYFRWIGGSLKLVRLIGEGVDSIRDLEYSKLFTVSVYGRRVDWKEWRRFGSMIKEVFKEKDSAKFFKPANTYAMPSELILKGFPKVKDVVLLFVDDKVLVGETVRVTDPFELKKLDVERPVVRPTISIPPRLARVMVNLSEIRRGNVLDPFCGTGTIVMELTLQGLNAYGTDIEEGRVRDAKKNIDWLRKEFRIRKYPVLKVCDVRRLRKCFPRTRFDAIITEPYMGKPLKYKPSRGEAIKIAKGLDRLYYQAFESFADVLKRGSIIVFVFPAFSLSNGEVYRRNRPWLEELGFKVLYRVSEGEEEHRIVRDIHVIKFIR | soluble
MELDLISYELDEKTKEGIEKVVEKFFTKAEPDLVLIFDKAGRILACKGMDISDTYSEFISSILSALFFASEELTSMLDKNDEMKDVFYETKNRVFLMARLEKDFLIGVISRKNLSLGSIRLFFNHLVSDLNAVLKNLKEVEKKSLKISKEELKKKLDQILGS | not soluble
MELGKQRPVVYVVSDSVGETAELVVKAAASQFSGAGIEVRRIPYVEDKETVDEVIQLAKQADAIIAFTLVVPGIRTYLLEKATEAKVETVDIIGPMLEKISSLTKEEPRYEPGIVYRLDEDYFRKVEAIEFAVKYDDGRDPRGIVRADLVLIGVSRTSKTPLSQYLAHKRLKVANVPLVPEVEPPEELFKLSPKKVIGLKISPEQLNGIRAERLKTLGLKSQANYANIDRIKEELAYAEGIMKRIGCPVIDVSNKAVEETANLISSMFQKMAGDPLEHHHHHH | soluble
MELIRFSISIPSKLLEKFDQIIEEIGYENRSEAIRDLIRDFIIRHEWEVGNEEVAGTITIVYNHDEGDVVKALLDLQHEYLDEIISSLHVHMDEHNCLEVIVVKGEAKKIKMIADKLLSLKGVKHGKLVMTSTGKELV | soluble
MELKNSISDYTETEFKKIIEDIINCEGDEKKQDDNLEHFISVTEHPSGSDLIYYPEGNNDGSPEAVIKEIKEWRAANGKSGFKQG | soluble
MELRVGNRYRLGRKIGSGSFGDIYLGTDIAAGEEVAIKLECVKTKHPQLHIESKIYKMMQGGVGIPTIRWCGAEGDYNVMVMELLGPSLEDLFNFCSRKFSLKTVLLLADQMISRIEYIHSKNFIHRDVKPDNFLMGLGKKGNLVYIIDFGLAKKYRDARTHQHIPYRENKNLTGTARYASINTHLGIEQSRRDDLESLGYVLMYFNLGSLPWQGLKAATKRQKYERISEKKMSTPIEVLCKGYPSEFATYLNFCRSLRFDDKPDYSYLRQLFRNLFHRQGFSYDYVFDWNMLKFGASRAADDAERERRDREERLRH | soluble
MELSEPLENYLKEIYEIELLKGYARVSDLILAFNVSPGTVSKALEKLEKIGLIERDNKKIKLTAEGKKIAEKLIRAHRLSERLLTDIIGLDWIRAHQLAHRLEHIWPEDVVDKIDELLGKPLTCPHGHPIPGREVKVNGIKLSEAECNKKYKVIMIIREEEWILSMADELNIKPGVEIKLIKKNENDFVIEIDNKKESIPKALAEEVLVSE | soluble
MENCPLVSVIVCAYNAEQYIDESISSIINQTYENLEIIVINDGSTDLTLSHLEEISKLDKRIKIISNKYNLGFINSLNIGLGCFSGKYFARMDADDIAKPSWIEKIVTYLEKNDHITAMGSYLEIIVEKECGIIGSQYKTGDIWKNPLLHNDICEAMLFYNPIHNNTMIMRANVYREHKLIFNKDYPYAEDYKFWSEVSRLGCLANYPEALVKYRLHGNQTSSVYNHEQNETAKKIKRENITYYLNKIGIDIKVINSVSLLEIYHVDKSNKVLKSILYEMYMSLDKYTITSLLHFIKYHLELFDLKQNLKIIKKFIRKINVIF | not soluble
